Several values for one entry are separate records, joined by “and”; a condition that tells them apart may be missing. Equal values may be shown once. Read-outs that look alike come from different tables or passages of the source.

Test [1] deals with Bcl-2 (Homo sapiens) (UniProt P10415). As to conditions: cited from earlier work.
For test [2], the target named is BECN1 CC CC (Homo sapiens) (UniProt Q14457). Particulars: cited from earlier work.
Test [3] deals with Bcl-2 (Homo sapiens) (UniProt P10415). As to conditions: cited from earlier work. This is another data set of the same source.
For test [4], the target named is BECN^1-265 (BECN1 residues 1-265, BARA-less construct) (human) (UniProt Q14457). In words: AUC.
The target in test [5] is V250A/M254A/L261A mutant of full-length BECN1 (human) (UniProt Q14457). In words: AUC.
In test [6] the target is human Bcl-2 (residues 1-218) (human, UniProt P10415 1-218). In words: ITC. Background: ITC needs no label: the signal is the heat of the interaction.
Chain of human Bcl-2 (residues 1-218) (P10415 1-218): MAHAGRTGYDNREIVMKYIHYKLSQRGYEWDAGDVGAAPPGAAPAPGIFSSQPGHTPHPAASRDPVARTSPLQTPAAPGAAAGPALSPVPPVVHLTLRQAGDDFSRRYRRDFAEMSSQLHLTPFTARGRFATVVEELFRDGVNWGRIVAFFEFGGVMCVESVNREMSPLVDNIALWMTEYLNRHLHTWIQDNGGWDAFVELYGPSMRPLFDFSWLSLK

Chain of Bcl-2 (Homo sapiens) (P10415 whole entry, the tested form may be a part): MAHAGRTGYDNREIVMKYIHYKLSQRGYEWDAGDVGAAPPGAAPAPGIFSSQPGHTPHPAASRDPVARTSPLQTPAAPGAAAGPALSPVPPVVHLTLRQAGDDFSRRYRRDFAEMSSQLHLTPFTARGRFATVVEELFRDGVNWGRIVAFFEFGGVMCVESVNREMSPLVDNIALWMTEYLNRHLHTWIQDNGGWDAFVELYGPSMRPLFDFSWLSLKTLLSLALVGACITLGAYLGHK
Chain of BECN1 CC CC (Q14457 175-265): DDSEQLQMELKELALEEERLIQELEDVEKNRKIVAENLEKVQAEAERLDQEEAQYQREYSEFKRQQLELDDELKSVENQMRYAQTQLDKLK
Chain of BECN1 BH3 peptide 105-130 (Q14457 105-130): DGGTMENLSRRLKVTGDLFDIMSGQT
Chain of BECN1 IDR 1-135 (Q14457 1-135): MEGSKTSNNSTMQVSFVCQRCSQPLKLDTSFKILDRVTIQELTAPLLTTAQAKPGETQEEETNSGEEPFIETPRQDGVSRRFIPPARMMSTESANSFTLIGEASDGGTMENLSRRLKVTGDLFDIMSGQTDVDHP

Regarding “BECN1 BH3 peptide 105-130 (from UniProt Q14457)”, the Kd – broadly, the free concentration of one partner at which half of the binding sites on the other are occupied at equilibrium, for simple one-to-one binding – with Bcl-2 (Homo sapiens) [1] was 8 µM.
Take BECN1 CC CC (from UniProt Q14457): the Kd in test [2] is 48 µM and 45 µM.
As to BECN1 IDR 1-135 (from UniProt Q14457), the Kd with Bcl-2 (Homo sapiens) [3] was 8.6 µM.
In test [4], “BECN^1-265 (BECN1 residues 1-265, BARA-less construct) (from UniProt Q14457 1-265) (domain or fragment)” showed a Kd of 1350 nM.
For the molecule “V250A/M254A/L261A mutant of full-length BECN1 (from UniProt Q14457 1-450) (natural protein)”, the Kd in test [5] stood at 1860 nM.
With FTLIGEASDGGTMENLSRRLKVTGDLFDIM [BECN1 BH3 peptide (residues 97-126)], the Kd in test [6] was determined as 9.6 µM.
